Kd data for four molecules are collected here from paper PMC3762362, “Three-color single molecule imaging shows WASP detachment from Arp2/3 complex triggers actin filament branch formation” (eLife, 2013).

B1: Cy3-diVCA-A* (Δ486–488) (domain or fragment)
chain: CGGSGGSGGSGGSSGRDALLDQIRQGIQLKSVADGQESTPPTPAPTSGIVGALMEVMQKRSKAIHSSEDEDDEEDFEDDDEWED
modifications: Cy3 bis-maleimide (BMCy3) crosslinks the single Cys of the N-terminal extension of the two chains
notes: extension appended at the N-terminus; its Cys reacts with the Cy3 bis-maleimide; human N-WASP VCA, residues 432-505, three-residue deletion in the A-region; Covalent dimer; same design as m1; also called A* mutant; source: E. coli BL21(DE3) T1R, purified (DEAE, Glutathione Sepharose, TEV cleavage, SOURCE 15Q, Superdex 200); not shown: GST, N-terminal, cleaved
B2: Cy3-diVCA wild-type (N-WASP VCA covalently dimerized with a Cy3 bis-maleimide) (domain or fragment)
chain: CGGSGGSGGSGGSSGRDALLDQIRQGIQLKSVADGQESTPPTPAPTSGIVGALMEVMQKRSKAIHSSDEDEDEDDEEDFEDDDEWED
modifications: Cy3 bis-maleimide (BMCy3) crosslinks the single Cys of the N-terminal extension of the two chains
notes: extension appended at the N-terminus; its Cys reacts with the Cy3 bis-maleimide; human N-WASP VCA, residues 432-505 (second WH2 motif (V) through the C-terminus); Covalent dimer; also called diVCA w.t; wild-type diVCA; source: E. coli BL21(DE3) T1R, purified (DEAE, Glutathione Sepharose, TEV cleavage, SOURCE 15Q, Superdex 200); not shown: GST, N-terminal, cleaved
B3: Cy3-diVCA-V* (D435S/A436D) (domain or fragment)
chain: B2 chain with D17S, A18D
modifications: Cy3 bis-maleimide (BMCy3) crosslinks the single Cys of the N-terminal extension of the two chains
notes: extension appended at the N-terminus; its Cys reacts with the Cy3 bis-maleimide; human N-WASP VCA, residues 432-505, mutated in the V-region; Covalent dimer; same design as m1; also called V* mutant; source: E. coli BL21(DE3) T1R, purified (DEAE, Glutathione Sepharose, TEV cleavage, SOURCE 15Q, Superdex 200); not shown: GST, N-terminal, cleaved
B4: Cy3-diVCA-C* (I467A) (domain or fragment)
chain: B2 chain with I49A
modifications: Cy3 bis-maleimide (BMCy3) crosslinks the single Cys of the N-terminal extension of the two chains
notes: extension appended at the N-terminus; its Cys reacts with the Cy3 bis-maleimide; human N-WASP VCA, residues 432-505, mutated in the C-region; Covalent dimer; same design as m1; also called C* mutant; source: E. coli BL21(DE3) T1R, purified (DEAE, Glutathione Sepharose, TEV cleavage, SOURCE 15Q, Superdex 200); not shown: GST, N-terminal, cleaved

Changes are numbered by the printed parent chain. Numbers in names are those of the source.

For this assay, the target named is Rabbit muscle actin (monomeric) (rabbit, UniProt P68135 1-377). Put plainly: fluorescence polarisation; fluorescence anisotropy competition: 20 nM VCA-AF488 with rabbit muscle actin (150 nM in the legend, 200 nM in the methods) and increasing Cy3-diVCA construct; fit to a competition binding isotherm; 10 mM imidazole pH 7.0, 50 mM KCl, 1 mM EGTA, 1 mM MgCl2, 0.5 mM DTT, 0.1 mM ATP; room temperature. The note with it: both partners purified.
B1: the dissociation constant Kd – broadly, the equilibrium constant for the complex coming apart – is 250 nM.
For B2, binding was put at a Kd of 340 nM.
B3 registered a dissociation constant Kd of 660 nM.
As to B4, the Kd was found to be 260 nM.
